Blank lines part the entries; values can stand above or below the molecule they belong to.
Assays:
PGK1 [1] = target: PGK1 (UniProt P00558); test: co-IP of HA-HDAC3, PGK1 blot; settings: reference: wild type HA-HDAC3; sites S424
PGK1 [2] = target: PGK1 (UniProt P00558); test: co-IP with HA beads, Flag blot; settings: reference: wild type HDAC3, insulin-treated; sites S424
GST-HDAC3 (recombinant) = target: T1, GST-HDAC3 (recombinant) (UniProt O15379-1 1-428); test: pull-down; in vitro pull-down with recombinant GST-HDAC3 (30 ug) and His-PGK1 (10 ug) purified from E. coli; details in S1 Text; settings: both partners purified
T1 construct: source: E. coli, purified
T1 sequence (O15379 whole entry): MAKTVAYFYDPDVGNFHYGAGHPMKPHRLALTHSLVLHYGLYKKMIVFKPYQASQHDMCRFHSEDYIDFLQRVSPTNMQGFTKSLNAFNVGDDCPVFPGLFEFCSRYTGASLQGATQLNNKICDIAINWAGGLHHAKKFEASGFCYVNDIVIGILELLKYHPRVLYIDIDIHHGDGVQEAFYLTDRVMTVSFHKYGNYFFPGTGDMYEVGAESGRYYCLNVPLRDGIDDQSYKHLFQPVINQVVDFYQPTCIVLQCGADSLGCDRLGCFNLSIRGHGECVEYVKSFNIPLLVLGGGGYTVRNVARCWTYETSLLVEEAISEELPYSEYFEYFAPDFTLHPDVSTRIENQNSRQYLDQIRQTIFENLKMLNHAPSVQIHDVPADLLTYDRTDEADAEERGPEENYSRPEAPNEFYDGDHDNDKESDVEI

- binding against the reference (PGK1 [1]): weaker
Molecule: HDAC3 (from UniProt O15379) S424A

- binding against the reference (PGK1 [2]): weaker
Molecule: HDAC3 (from UniProt O15379) S424A, insulin-treated

- binding result (GST-HDAC3 (recombinant)): binds
B1: His-PGK1 (recombinant) (enzyme, human, UniProt P00558 1-417, looked up)
chain: MSLSNKLTLDKLDVKGKRVVMRVDFNVPMKNNQITNNQRIKAAVPSIKFCLDNGAKSVVLMSHLGRPDGVPMPDKYSLEPVAVELKSLLGKDVLFLKDCVGPEVEKACANPAAGSVILLENLRFHVEEEGKGKDASGNKVKAEPAKIEAFRASLSKLGDVYVNDAFGTAHRAHSSMVGVNLPQKAGGFLMKKELNYFAKALESPERPFLAILGGAKVADKIQLINNMLDKVNEMIIGGGMAFTFLKVLNNMEIGTSLFDEEGAKIVKDLMSKAEKNGVKITLPVDFVTADKFDENAKTGQATVASGIPAGWMGLDCGPESSKKYAEAVTRAKQIVWNGPVGVFEWEAFARGTKALMDEVVKATSRGCITIIGGGDTATCCAKWNTEDKVSHVSTGGGASLELLEGKVLPGVDALSNI
notes: Phosphoglycerate kinase 1 (PGK1), human, Gene ID 5230; unacetylated recombinant protein; also called His-tagged PGK1; source: E. coli, purified

Reference: PMC4565669, “Insulin and mTOR Pathway Regulate HDAC3-Mediated Deacetylation and Activation of PGK1” (PLoS Biology, 2015)
